Earlier results in publication PMC4449261.

Assays:
[1] = biological target: IL-4Rα1 (Homo sapiens) (UniProt P24394)
[2] = biological target: IL-13Rα1 (Homo sapiens) (UniProt P78552)
Chain of UniProt P78552 (P78552 22-343): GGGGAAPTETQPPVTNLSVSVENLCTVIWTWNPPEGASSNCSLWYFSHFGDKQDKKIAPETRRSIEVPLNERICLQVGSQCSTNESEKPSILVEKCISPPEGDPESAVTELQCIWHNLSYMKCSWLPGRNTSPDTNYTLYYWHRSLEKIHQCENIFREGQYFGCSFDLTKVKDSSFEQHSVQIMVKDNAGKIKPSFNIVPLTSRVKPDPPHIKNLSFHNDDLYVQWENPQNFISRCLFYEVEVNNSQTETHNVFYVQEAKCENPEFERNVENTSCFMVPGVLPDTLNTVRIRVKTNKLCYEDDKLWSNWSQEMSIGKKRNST

Chain of UniProt P24394 (P24394 26-232): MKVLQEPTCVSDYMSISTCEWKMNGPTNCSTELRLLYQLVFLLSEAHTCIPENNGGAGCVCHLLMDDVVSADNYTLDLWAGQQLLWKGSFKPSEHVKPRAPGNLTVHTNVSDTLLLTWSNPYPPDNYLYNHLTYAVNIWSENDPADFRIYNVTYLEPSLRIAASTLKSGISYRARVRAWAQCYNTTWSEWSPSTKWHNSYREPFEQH

| Kd [1] | Kd [2] | Substance |
| --- | --- | --- |
| 0.1 nM | – | IL-4 (from UniProt P05112) |
| – | 4 nM | IL-13 (from UniProt P35225) |
